Article PMC3746776 (Journal of molecular biology, 2013)

Legend:
[1] = target: purified phage T4 heads (bacteriophage T4) (UniProt P13334); assay: co-sedimentation
crystal structure = target: the molecule itself; assay: crystal structure

Chain of purified phage T4 heads (bacteriophage T4) (P13334 whole entry, looked up): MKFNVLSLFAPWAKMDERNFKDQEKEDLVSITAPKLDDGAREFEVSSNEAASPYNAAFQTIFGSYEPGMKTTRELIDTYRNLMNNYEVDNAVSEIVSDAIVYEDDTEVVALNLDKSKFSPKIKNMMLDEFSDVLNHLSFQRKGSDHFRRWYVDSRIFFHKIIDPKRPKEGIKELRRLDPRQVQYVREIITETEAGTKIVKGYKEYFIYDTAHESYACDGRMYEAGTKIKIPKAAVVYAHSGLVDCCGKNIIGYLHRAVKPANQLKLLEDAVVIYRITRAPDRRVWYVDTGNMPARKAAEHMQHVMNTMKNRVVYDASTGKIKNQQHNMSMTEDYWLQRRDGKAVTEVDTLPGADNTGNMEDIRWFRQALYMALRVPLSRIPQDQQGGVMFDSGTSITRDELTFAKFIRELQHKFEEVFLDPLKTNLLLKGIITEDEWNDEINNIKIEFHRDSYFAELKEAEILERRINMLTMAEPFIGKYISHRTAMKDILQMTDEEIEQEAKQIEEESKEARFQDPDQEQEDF

Binder | stoichiometry N (copies per head) [1] | stoichiometry N (crystal structure)
bacteriophage T4 gp14, purified (natural protein) MATYDKNLFAKLENRTGYSQTNETEILNPYVNFNHYKNSQILADVLVAESIQMRGVECYYVPREYVSPDLIFGEDLKNKFTKAWKFAAYLNSFEGYEGAKSFFSNFGMQVQDEVTLSINPNLFKHQVNGKEPKEGDLIYFPMDNSLFEINWVEPYDPFYQLGQNAIRKITAGKFIYSGEEINPVLQKNEGINIPEFSELELNAVRNLNGIHDINIDQYAEVDQINSEAKEYVEPYVVVNNRGKSFESSPFDNDFMD | 6 | 
gp15 C-terminal truncation mutant (residues 1-261) (domain or fragment, bacteriophage T4, UniProt P11112 1-261, looked up) MFGYFYNSSFRRYATLMGDLFSNIQIKRQLESGDKFIRVPITYASKEHFMMKLNKWTSINSQEDVAKVETILPRINLHLVDFSYNAPFKTNILNQNLLQKGATSVVSQYNPSPIKMIYELSIFTRYEDDMFQIVEQILPYFQPHFNTTMYEQFGNDIPFKRDIKIVLMSAAIDEAIDGDNLSRRRIEWSLTFEVNGWMYPPVDDAEGLIRTTYTDFHANTRDLPDGEGVFESVDSEVVPRDIDPEDWDGTVKQTFTSNVNR |  | 6
